# In publication PMC7924758, “IAA3-mediated repression of PIF proteins coordinates light and auxin signaling in Arabidopsis” (PLoS Genetics, 2021):
# T1: His-PIF1 (Arabidopsis thaliana, UniProt Q8GZM7 1-478)
# T1 construct: also called His-tagged PIF1; source: E. coli Transetta (DE3), purified (Ni-NTA agarose)
# T1 sequence (looked up): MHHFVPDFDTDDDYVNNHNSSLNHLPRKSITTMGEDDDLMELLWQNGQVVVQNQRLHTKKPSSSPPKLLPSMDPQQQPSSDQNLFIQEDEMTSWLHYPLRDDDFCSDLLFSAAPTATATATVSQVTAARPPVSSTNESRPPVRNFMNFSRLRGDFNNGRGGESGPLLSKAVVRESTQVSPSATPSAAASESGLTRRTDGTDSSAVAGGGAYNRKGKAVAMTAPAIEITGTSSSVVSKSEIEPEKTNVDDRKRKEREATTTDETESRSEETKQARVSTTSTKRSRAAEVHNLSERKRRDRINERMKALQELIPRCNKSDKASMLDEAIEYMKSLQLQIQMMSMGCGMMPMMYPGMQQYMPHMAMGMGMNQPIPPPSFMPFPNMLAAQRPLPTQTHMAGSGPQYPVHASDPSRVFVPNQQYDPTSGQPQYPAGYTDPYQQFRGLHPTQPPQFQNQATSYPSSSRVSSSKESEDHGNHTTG
# B1: MBP-IAA3 (natural protein, Arabidopsis thaliana, UniProt Q38822 1-189, looked up)
# chain: MDEFVNLKETELRLGLPGTDNVCEAKERVSCCNNNNKRVLSTDTEKEIESSSRKTETSPPRKAQIVGWPPVRSYRKNNIQSKKNESEHEGQGIYVKVSMDGAPYLRKIDLSCYKGYSELLKALEVMFKFSVGEYFERDGYKGSDFVPTYEDKDGDWMLIGDVPWEMFICTCKRLRIMKGSEAKGLGCGV
# notes: IAA3 (SHY2), AUX/IAA transcriptional repressor, Arabidopsis; also called SHY2; source: E. coli Transetta (DE3), purified (amylose agarose)
# Target: T1, His-PIF1
# Assay: pull-down; MBP or MBP-IAA3 held on amylose resin, His-PIF1 or His-PIF4 added, 3 h at 4°C; 50 mM Tris-Cl pH 8.0, 150 mM NaCl, 10% glycerol, 0.5 mM EDTA, 0.1% Triton X-100, 5 mM β-mercaptoethanol; five washes; blots with anti-MBP and anti-His
# Conditions: both partners purified
binder,measurement,value
B1,binding result,binds
